Variants at the floor of the assay were thinned out.
Assays:
[1] = test system: biotinyl-Leu-oxazolone; assay: self-aminoacylation, catalytic enhancement (BLO) (fold over background); higher = more active; k-Seq, kA / k0A0; sequences stand for … in GGGAAUGGAUCCACAUCUACGAAUUC…UUCACUGCAGACUUGACGAAGCUG
Procedure, shortened: (§1)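 Working in 50 μL HEPES/NaCl/KCl/MgCl2/CaCl2 buffer with 5% acetonitrile at pH 6.9–7.0, mutagenized RNA pools (0.43 μM; 21-nt variable region) were reacted with 2–1250 μM of each biotinyl-aminoacyl-oxazolone for 90 minutes at room temperature. Streptavidin capture followed, with quantification by triplicate qPCR and Illumina sequencing. Catalytic enhancement is reported as median kA over the uncatalyzed rate, the low-activity peak of a bimodal Gaussian fit to the data.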

[2] = test system: biotinyl-Ile-oxazolone; assay: self-aminoacylation, catalytic enhancement (BIO) (fold over background); higher = more active; k-Seq, kA / k0A0; sequences stand for … in GGGAAUGGAUCCACAUCUACGAAUUC…UUCACUGCAGACUUGACGAAGCUG
Procedure, shortened: as §1

[3] = test system: biotinyl-Val-oxazolone; assay: self-aminoacylation, catalytic enhancement (BVO) (fold over background); higher = more active; k-Seq, kA / k0A0; sequences stand for … in GGGAAUGGAUCCACAUCUACGAAUUC…UUCACUGCAGACUUGACGAAGCUG
Procedure, shortened: as §1

[4] = test system: biotinyl-Met-oxazolone; assay: self-aminoacylation, catalytic enhancement (BMO) (fold over background); higher = more active; k-Seq, kA / k0A0; sequences stand for … in GGGAAUGGAUCCACAUCUACGAAUUC…UUCACUGCAGACUUGACGAAGCUG
Procedure, shortened: as §1

[5] = test system: biotinyl-Trp-oxazolone; assay: self-aminoacylation, catalytic enhancement (BWO) (fold over background); higher = more active; k-Seq, kA / k0A0; sequences stand for … in GGGAAUGGAUCCACAUCUACGAAUUC…UUCACUGCAGACUUGACGAAGCUG
Procedure, shortened: as §1

[6] = test system: biotinyl-Phe-oxazolone; assay: self-aminoacylation, catalytic enhancement (BFO) (fold over background); higher = more active; k-Seq, kA / k0A0; sequences stand for … in GGGAAUGGAUCCACAUCUACGAAUUC…UUCACUGCAGACUUGACGAAGCUG
Procedure, shortened: as §1

| Sequence | self-aminoacylation [1] | self-aminoacylation [2] | self-aminoacylation [3] | self-aminoacylation [4] | self-aminoacylation [5] | self-aminoacylation [6] |
| --- | --- | --- | --- | --- | --- | --- |
| AUGAACCUAGGUCAUCGGGUG [Fam2.2 aminoacylation ribozyme variant] | 7.54 | 4.29 | 4.28 | 5.97 | 6.44 | 24.6 |
| CUAUUUCAAACAAUGGGUCUG [Fam1A.1 aminoacylation ribozyme variant] | 0.863 | 0.924 | 0.81 | 0.836 | 0.802 | 0.641 |
| AAAUUUGCUAAUAGUCGCAAA [Fam3.1 aminoacylation ribozyme variant] | 3.17 | 3.32 | 2.41 | 3.08 | 3.82 | 2.95 |
| AAGUUUGCUGAUAGUCUCAAG [Fam3.1 aminoacylation ribozyme variant] | 0.963 | 1.11 | 1.13 | 1.01 | 1.28 | 1.94 |
| CUCCUUCAAACAAUCCGUCUG [Fam1A.1 aminoacylation ribozyme variant] | 0.659 | 1.03 | 0.949 | 0.657 | 1.25 | 1.24 |
| AUUACCCUGAUCAUCGAGUGG [Fam2.1 aminoacylation ribozyme variant] | 2.42 | 1.52 | 1.62 | 2.82 | 2.13 | 2.77 |
| CCACAGUUCAAGCAAUCGUUC [Fam1B.1 aminoacylation ribozyme variant] | 0.743 | 0.771 | 0.845 | 0.742 | 0.472 | 0.594 |
| CUACUUCAGACAAUCGUUCUG [Fam1A.1 aminoacylation ribozyme variant] | 0.512 | 0.59 | 0.659 | 0.477 | 0.342 | 0.453 |
| AUUCAUCUAGGUCACCGGGUG [Fam2.2 aminoacylation ribozyme variant] | 6.82 | 3.85 | 3.34 | 5.35 | 5.32 | 36.8 |
| CUACUUCAAACACUCGGACUG [Fam1A.1 aminoacylation ribozyme variant] | 0.89 | 1.11 | 1.2 | 1.01 | 1.32 | 0.435 |
| AAGGUUGCUAAAAGUCGCAAG [Fam3.1 aminoacylation ribozyme variant] | 1.6 | 1.62 | 1.67 | 1.52 | 1.93 | 4.28 |
| AAGUUUGCUAACAGUCGCAAA [Fam3.1 aminoacylation ribozyme variant] | 1.23 | 1.43 | 0.995 | 1.06 | 1.58 | 2.28 |
